Experimental data reported in publication PMC4676284 (mBio, 2015).

Biological target: the molecule itself
Assay: crystal structure

B1: Bartonella birtlesii strain LL-WM9 TrwG, soluble C-terminal periplasmic domain (domain or fragment)
chain: QPAPTPLVLRVDNTTGAVDVISVMREHETSYGEVVDRYWLNQYVLNRETYDYDTIQLNYDTTALLSTAAVQQEFYKIYEGEDARDKVLSNKARITVKVRSIQPNGRGQATVRFTTQQHDSTGAVGVKQHQIATIGYTYVGAPMKSSDRLLNPLGFQVTSYRTDPEILLNN
stoichiometry N: 2

B2: Bartonella grahamii strain as4aup VirB8, soluble C-terminal periplasmic domain (domain or fragment)
chain: ALTPLKTVEPFVIRVDNSTGIIDTVSALKESPNDYDEAITRYFASQYVRAREGFQASEAENNFRLVSLLSSPKEQNRFGKWYAGNNPESPQNIYHNMIATVTIKSISFISKDLIQVRYYKTVRDFNEKENISHWISILNFSYVNAHISTSDRLINPLGFQVSEYRSDPEVIK
stoichiometry N: 2

B3: Bartonella grahamii strain as4aup TrwG, soluble C-terminal periplasmic domain (domain or fragment)
chain: QPAPTPLVLRVDNTTGAVDVISVMREHETSYGEVVDRYWLNQYVLNRENYDYDTIQLNYDTTALLSAASVQQEYYKIYDGENARDKVLSNKARITVKVRSIQLNGLGQATVRFTTQQLDSSGATTGPKQHQIATIGYTYVGAPMKSSDRLLNPLGFQITSYRSDPEILLND
stoichiometry N: 2
